From publication PMC5261807 (2017)
Non-standard residues stand in square brackets, D forms with d. No end group written: not given here. Arg(Me2a) = CN(C)C(=N)NCCC[C@H](N)C(=O)O; Lys(Me3) = C[N+](C)(C)CCCC[C@H](N)C(=O)O; Arg(Me2s) = CN=C(NC)NCCC[C@H](N)C(=O)O; Me2a = asymmetric dimethyl (on Arg); Lys(Me2) = CN(C)CCCC[C@H](N)C(=O)O; Me2s = symmetric dimethyl (on Arg); pS = N[C@@H](COP(=O)(O)O)C(=O)O; Lys(Me) = CNCCCC[C@H](N)C(=O)O; Me3 = trimethyl (on Lys)

T1: Bdf1 bromodomain 2 (GST-tagged, WT) (Saccharomyces cerevisiae (strain ATCC …, UniProt P35817))
T1 chain: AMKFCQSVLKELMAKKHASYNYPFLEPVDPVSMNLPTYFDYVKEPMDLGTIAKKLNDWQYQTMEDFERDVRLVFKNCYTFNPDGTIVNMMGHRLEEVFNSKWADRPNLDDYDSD

T2: Bdf1 bromodomain 1 (GST-tagged, WT) (Saccharomyces cerevisiae (strain ATCC …, UniProt P35817))
T2 chain: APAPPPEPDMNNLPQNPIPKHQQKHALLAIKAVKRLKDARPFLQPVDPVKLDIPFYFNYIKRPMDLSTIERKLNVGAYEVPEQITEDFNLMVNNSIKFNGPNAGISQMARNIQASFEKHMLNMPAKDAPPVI


Assays:
[1] = molecular target: T1, Bdf1 bromodomain 2 (GST-tagged, WT); experiment: histone peptide array probed with recombinant GST-bromodomain, signal normalised to myc peptide control
[2] = molecular target: T2, Bdf1 bromodomain 1 (GST-tagged, WT); experiment: as above

| Binder | binding score [1] | binding score [2] |
| --- | --- | --- |
| PRKQLATKAA[Arg(Me2a)][Lys(Me)][pS]APATGG | 0 | 0 |
| ARTKQTARKSTGGKAPRKQ (A Rme2s T Kme3 Q T A Rme2s Kme2 S T G G K A P R K Q) | 0 | 0.000538 |
| PRKQLATKAA[Arg(Me2a)][Lys(Me2)][pS]APATGG | 0 | 0 |
| SGRGKGGKGLGKGGAKRHR (S G R G Kac G G Kac G L G K G G A K R H R) | 0.33 | 0.146 |
| SGRGKGGKGLGKGGAKRHR (pS G Rme2s G K G G K G L G K G G A K R H R) | 0 | 0 |
| ARTKQTARKSTGGKAPRKQ (A Rme2a T Kme2 Q T A Rme2s Kme2 S T G G K A P R K Q) | 0 | 0 |
| ARTKQTARKSTGGKAPRKQ (A Rme2s T Kme2 Q T A Rme2s Kac S T G G K A P R K Q) | 0.0314 | 0.0179 |
| ARTKQTARKSTGGKAPRKQ (A Rme2a pT Kme3 Q T A R K S T G G K A P R K Q) | 0.000885 | 0.00789 |
| ARTKQTARKSTGGKAPRKQ (A R T K Q T A R Kme1 S T G G K A P R K Q) | 0.00482 | 0 |
| ARTKQTARKSTGGKAPRKQ (A R T K Q T A R K S pT G G K A P R K Q) | 0 | 0 |
| ARTKQTARKSTGGKAPRKQ (A Rme2a T Kme1 Q T A Rme2s Kac S T G G K A P R K Q) | 0.0204 | 0.00717 |
| PRKQLATKAAR[Lys(Me2)][pS]APATGG | 0 | 0 |
| PRKQLATKAAR[Lys(Me2)]SAPATGG | 0 | 0.01 |

Next, values leading:

| binding score [1] | binding score [2] | Binder |
| --- | --- | --- |
| 0 | 0 | ARTK(Me3)QTAR(Me2s)K(Me)STGGKAPRKQ |
| 0.00384 | 0 | A[Arg(Me2a)]T[Lys(Me3)]QTA[Arg(Me2a)][Lys(Me3)]STGGKAPRKQ |
| 0 | 0.0145 | ARTKQTARKSTGGKAPRKQ (A Rme2a T Kme3 Q T A Rme2a Kac S T G G K A P R K Q) |
| 0 | 0 | KKKKKRRRRRXKKKKRK (K Kme1 Kme2 Kme3 Kac R Rme2s R Rme2a R Cit K Kme1 Kac Kme3 R K) [background 01] |
| 0.0292 | 0.0463 | RKSAPATGGVKKPHRYRPG (R K S A P A T G G V Kac K P H R Y R P G) [H3 26-45] |
| 0.00698 | 0.00197 | A[Arg(Me2s)]TK(Ac)QTA[Arg(Me2a)][Lys(Me2)]STGGKAPRKQ |
| 0 | 0.0199 | ART[Lys(Me)]QTA[Arg(Me2s)][Lys(Me)]STGGKAPRKQ |
| 0.00187 | 0.0102 | AR(Me2a)TK(Me)QTAR(Me2s)K(Me)STGGKAPRKQ |
